Reference: the supplement of paper PMC10724198
± gives the standard deviation of the averaged measurements.

Tested on: Saccharomyces cerevisiae
Experiment: protein stability index of tFT-peptide fusion (C-terminal peptide) (PSI (0-1 scale)); higher = more stable (slower turnover)
Details: genetic background: wild type; temperature: 30 C
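Note: PSI is a weighted mean of sequencing reads over stability bins, variants kept only with over 10 reads, mCherry proximal and sfGFP distal, peptide attached via GGGS linker.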

Row | Sequence | protein stability index
1 | SGGGGGGDCVGA | 0.687 ± 0.015
2 | SGGGRAECGEVR | 0.702 ± 0.021
3 | SGGQGCGGGWNV | 0.708 ± 0.011
4 | SGGVRDDFLWVL | 0.728 ± 0.016
5 | SGHFGTATTLCF | 0.749 ± 0.011
6 | SGKKKVSAQRII | 0.6709 ± 0.0023
7 | SGLLSPHTHMFP | 0.598 ± 0.048
8 | SGLPRLLLVILP | 0.6104 ± 0.0031
9 | SGNSPTRDRLRE | 0.684 ± 0.16
10 | SGPTPCRSPRLL | 0.636 ± 0.051
11 | SGRGANGVPGGE | 0.602 ± 0.16
12 | SGRIYLVGLRYI | 0.538 ± 0.0068
13 | SGRTLLPPSLGD | 0.606 ± 0.025
14 | SGSFPSLALLSS | 0.642 ± 0.042
15 | SGSSRVGWLEGW | 0.676 ± 0.022
16 | SGSTRTEDDGAR | 0.652 ± 0.038
17 | SGTRARGKGVVC | 0.6421 ± 0.0024
18 | SGVHFFLRTGAL | 0.692 ± 0.016
19 | SHAAKRYNHPHS | 0.7333 ± 0.00094
20 | SHAGTEAGPGWM | 0.782 ± 0.2
21 | SHGLLTLRLALA | 0.586 ± 0.017
22 | SHPPPALVPLFK | 0.678 ± 0.016
23 | SHPPPTVPPAIP | 0.677 ± 0.013

Row | Sequence | protein stability index
24 | SHPSALPPISAG | 0.734 ± 0.071
25 | SHRDNEKPILSA | 0.75 ± 0.015
26 | SHSKSQRRFQTR | 0.637 ± 0.093
27 | SHVARFMDEFCM | 0.79 ± 0.038
28 | SICFWCKHWSDV | 0.72 ± 0.064
29 | SIFRVKQGKTNK | 0.5732 ± 0.0025
30 | SIGAGSSGVGQE | 0.685 ± 0.037
31 | SILEIFSQGTEM | 0.693 ± 0.01
32 | SILLPLPRLLPC | 0.606 ± 0.018
33 | SIPLYAKNSSLP | 0.722 ± 0.042
34 | SIQHGRFLTLSV | 0.585 ± 0.0093
35 | SIRPPPPSSFPA | 0.806 ± 0.069
36 | SISFSLPRPLPP | 0.688 ± 0.068
37 | SISLLIWLFSSC | 0.637 ± 0.05
38 | SISYCSAFGGID | 0.69655 ± 7.1e-05
39 | SISYSNLPSLFF | 0.75 ± 0.051
40 | SIVESRGRGFRL | 0.697 ± 0.18
41 | SIVFFLPPVSSS | 0.724 ± 0.089
42 | SIWVLLVPRQSI | 0.639 ± 0.11
43 | SKDVLPGDDNVI | 0.656 ± 0.073
44 | SKFNSLNNHRKG | 0.655 ± 0.033
45 | SKKDMWMFVGEG | 0.722 ± 0.032
46 | SKLAVWVGERGF | 0.759 ± 0.02

Row | Sequence | protein stability index
47 | SKLTKQQKRTKS | 0.665 ± 0.055
48 | SKLVSPGVPRTP | 0.78 ± 0.043
49 | SKNLKQTQKKKT | 0.808 ± 0.069
50 | SKPEEAGADLSD | 0.6 ± 0.086
51 | SKPPLPTRLPRP | 0.7056 ± 0.0032
52 | SKRQQQKITAQE | 0.67 ± 0.086
53 | SKTQRKQIIKKQ | 0.638 ± 0.056
54 | SLASSLHTYDLT | 0.661 ± 0.032
55 | SLDQRPSLSFKR | 0.663 ± 0.015
56 | SLFFFLFSPSCL | 0.691 ± 0.075
57 | SLFFSTVELFFV | 0.6707 ± 0.0053
58 | SLFPQIFFFFFA | 0.498 ± 0.0099
59 | SLFSPSQLQSFS | 0.718 ± 0.012
60 | SLGRLKSLRSAR | 0.685 ± 0.017
61 | SLGSTHRWPPVV | 0.6272 ± 0.0019
62 | SLKPHTCPPRPA | 0.57 ± 0.15
63 | SLLAVITSFPLR | 0.687 ± 0.012
64 | SLLGFAGSCLLG | 0.735 ± 0.1
65 | SLLPLHPPLTLP | 0.674 ± 0.19
66 | SLLPLSLLSSPF | 0.664 ± 0.0072
67 | SLLSSSALTASP | 0.65 ± 0.043
68 | SLLTQSPLLPPP | 0.777 ± 0.29
69 | SLNLFFYVNPRF | 0.686 ± 0.06

Row | Sequence | protein stability index
70 | SLPGAPSPPHPL | 0.744 ± 0.0095
71 | SLPPFPLHSFPV | 0.694 ± 0.24
72 | SLPPPPSPVSLF | 0.611 ± 0.07
73 | SLPPPRSLSFPF | 0.673 ± 0.011
74 | SLPRPPVPLLPS | 0.707 ± 0.017
75 | SLPRYPRRASHS | 0.757 ± 0.068
76 | SLPTPPLFPSFP | 0.731 ± 0.014
77 | SLQGLLSIVNYR | 0.78 ± 0.15
78 | SLQRLALLRGPP | 0.736 ± 0.05
79 | SLREEATLVRAR | 0.563 ± 0.019
80 | SLRMTVFTAPLS | 0.654 ± 0.007
81 | SLSDGGPSCPGV | 0.677 ± 0.032
82 | SLSFPPNTFSFP | 0.738 ± 0.059
83 | SLSFTFPLAPLL | 0.643 ± 0.12
84 | SLSLSFVLSSCS | 0.721 ± 0.014
85 | SLSPLPCTVLRL | 0.684 ± 0.05
86 | SLSPWRLPIGGR | 0.734 ± 0.035
87 | SLSQWTSPGLNI | 0.708 ± 0.091
88 | SLSSVAYAIIIL | 0.561 ± 0.021
89 | SLTYSDGCTKSI | 0.742 ± 0.043
90 | SLVLFRSCSFFS | 0.669 ± 0.024
91 | SLVLPIFRIVSF | 0.573 ± 0.039
92 | SLWIKRSPVFSF | 0.563 ± 0.014

Row | Sequence | protein stability index
93 | SLWTDGYIFVLE | 0.732 ± 0.016
94 | SLYRKTLCMAYS | 0.558 ± 0.019
95 | SMAFLNQRPGIL | 0.685 ± 0.017
96 | SMGGDTFILFAV | 0.67 ± 0.023
97 | SNAIKTEESKGE | 0.734 ± 0.023
98 | SNCARGNREFYW | 0.733 ± 0.058
99 | SNCRLCGFGYVE | 0.6966 ± 0.0062
100 | SNLHCLQRGYSV | 0.725 ± 0.011
101 | SNLLKQHKDLFL | 0.7162 ± 0.0027
102 | SNRQDHACGGSA | 0.687 ± 0.11
103 | SNTSRIQGGWLK | 0.699 ± 0.18
104 | SPANLGFKHSGR | 0.674 ± 0.021
105 | SPAPALFCPARF | 0.739 ± 0.022
106 | SPAPPPPVTPPL | 0.662 ± 0.013
107 | SPAPRPSPVPGL | 0.686 ± 0.015
108 | SPARLHLPPFSP | 0.717 ± 0.016
109 | SPASPNALPAAP | 0.741 ± 0.046
110 | SPCMLLAVPHRL | 0.728 ± 0.044
111 | SPCTSPARLKLP | 0.559 ± 0.063
112 | SPEGYLLSPRCT | 0.737 ± 0.049
113 | SPFLFPRTVVGA | 0.671 ± 0.11
114 | SPFLPAHPPPTA | 0.714 ± 0.065
115 | SPFLTPSSHPPS | 0.681 ± 0.03

Row | Sequence | protein stability index
116 | SPGFSPPFPPLS | 0.776 ± 0.011
117 | SPGLLPLALFSL | 0.678 ± 0.14
118 | SPGPTLLSPPSP | 0.691 ± 0.017
119 | SPGSSPPLLSPH | 0.761 ± 0.013
120 | SPHPLPRPTTRP | 0.708 ± 0.12
121 | SPHPPPSRLPPP | 0.709 ± 0.029
122 | SPHPPPSSPPPP | 0.674 ± 0.097
123 | SPHPTAPFVSTL | 0.68 ± 0.087
124 | SPHVAPRKLQVS | 0.56147 ± 0.00038
125 | SPLGAHPTRIVF | 0.6915 ± 0.00071
126 | SPLHASLPPVSL | 0.704 ± 0.025
127 | SPLISYQPPTDP | 0.725 ± 0.061
128 | SPLLLSSPRPSP | 0.735 ± 0.062
129 | SPLPLASPFGFP | 0.719 ± 0.033
130 | SPLPPPPAPFLP | 0.6762 ± 0.0028
131 | SPLPPPTPLPLV | 0.8075 ± 0.0021
132 | SPLPPSPPPLLF | 0.762 ± 0.17
133 | SPLSDPPPYRPP | 0.591 ± 0.028
134 | SPLTTFPPHRVS | 0.711 ± 0.014
135 | SPPAPPLALPPP | 0.737 ± 0.057
136 | SPPASFPLPPPP | 0.6802 ± 0.0015
137 | SPPCPFPTPACP | 0.7165 ± 0.002
138 | SPPCPLPLPPPP | 0.626 ± 0.057

Row | Sequence | protein stability index
139 | SPPGPLPPRRPF | 0.725 ± 0.074
140 | SPPHTGMLRLLT | 0.7 ± 0.063
141 | SPPLPARSQSSI | 0.708 ± 0.029
142 | SPPLPSPPTLRL | 0.701 ± 0.015
143 | SPPLRPPAPLVL | 0.631 ± 0.14
144 | SPPPAPPPPPQT | 0.66492 ± 0.00031
145 | SPPPAPRPPLPP | 0.709 ± 0.041
146 | SPPPFPHPHQLP | 0.726 ± 0.029
147 | SPPPILPSSPSS | 0.698 ± 0.087
148 | SPPPLDSFPFIT | 0.659 ± 0.051
149 | SPPPLHPPPPAL | 0.637 ± 0.046
150 | SPPPMPLPLIPL | 0.663 ± 0.066
151 | SPPPPGPLPPPS | 0.718 ± 0.038
152 | SPPPPILPCKPL | 0.716 ± 0.031
153 | SPPPPPFCPLPA | 0.646 ± 0.014
154 | SPPPPPPSYPAH | 0.772 ± 0.051
155 | SPPPPTLPPAYL | 0.6577 ± 0.0025
156 | SPPPPTPPPPPA | 0.718 ± 0.045
157 | SPPPSRHPPPRL | 0.708 ± 0.016
158 | SPPRLPPLAAPP | 0.676 ± 0.07
159 | SPPRPPRPPRRA | 0.599 ± 0.02
160 | SPPRSPPDFVPF | 0.684 ± 0.0088
